Source: patent US8980255B2, “Treatment of autoimmune disease by modulating annexin-1 (lipocortin 1)” (Queen Mary & Westfield College, priority 2008, dated 2015)
Where no end group is shown, it is not given here.

Key:
[1] = tested on: murine naïve lymph node T cells; test: T cell proliferation (3H-thymidine incorporation), anti-CD3/CD28 stimulation; type: cell-based
Method: Primary murine T cells were prepared from lymph nodes by negative selection. Briefly, axillary, inguinal, and mesenteric lymph nodes were teased apart to make a single cell suspension, then washed and layered over Ficoll. The buffy coat was washed 2 times and then incubated with the antibody mix and the magnetic beads following the manufacturer's instructions (mouse T-cell negative isolation kit; Dynal, Bromborough, United Kingdom). In some experiments, cells were further purified to obtain naive CD62L^+ CD4^+ T cells by using the Miltenyi Biotec CD62L^+ CD4^+ T-cell isolation kit. Th0 conditions were created by T cells for 4 days in 6-well plates precoated with anti-CD3 (5 μg/mL) and anti-CD28 (5 μg/mL) in complete RPMI medium (10% fetal calf serum [FCS], 2 mM L-glutamine, and 100 units mL^−1 gentamycin) containing murine IL-2 (20 U/mL). […]
Purified lymph node T cells (10^5 cells/mL) were incubated with medium alone or with different concentrations of hrAnx-A1 for 2 hours at 37° C. in Eppendorf tubes. […] After 18 hours, cultures were pulsed for 8 hours with 1 μCi (3.7×10^4 Bg) [^3H]-thymidine (Amersham Pharmacia Biotech, Piscataway, N.J.) and incorporated radioactivity was measured by automated scintillation counter (Packard Instruments, Pangbourne, United Kingdom). […]

[2] = tested on: murine naïve lymph node T cells; test: IL-2 production from anti-CD3/CD28 stimulated T cells; type: cell-based
Method: The effects of an N-terminal peptide of hrAnx-A1 (peptide Ac 2-26) and of full length hrAnx-A1 on T cell activation were investigated. IL-2 production from murine naïve lymph node T cells was stimulated with 0.6, 1.25 or 2.5 μg/ml of anti-CD3/CD28 in the presence or absence of full length hrAnx-A1 (300 nM) or the Anx-A1 derived N-terminal peptide Ac.2-26 (100 μM) for 24 hrs.

[3] = tested on: murine naïve lymph node T cells; test: CD25 and CD69 cell surface expression by FACS; type: cell-based; settings: hrAnx-A1 150, 300, 600 nM; anti-CD3/CD28 1.25-5.0 μg/ml, 12 hrs; FIGS. 3C, 3D
Method: Purified lymph node T cells were pretreated with human recombinant Anx-A1 for 2 hours at 37° C. in Eppendorf tubes and then stimulated with plate-bound anti-CD3 and anti-CD28 as indicated in the figures. After 16 hours, the cells were stained with PE-conjugated anti-CD69 (clone H1.2F3) and FITC-conjugated anti-CD25 (clone PC61.5) diluted in FACS buffer (PBS containing 1% FCS and 0.02% […]). Intact cells were gated by using forward and side scatter and were analyzed with the CellQuest program (Becton Dickinson, Franklin Lakes, N.J.) on a FACScan flow cytometer. […]
Murine naïve lymph node T cells were stimulated with anti-CD3/CD28 at a concentration of 1.25 μg/ml (left column), 2.5 μg/ml (middle column) and 5.0 μg/ml (right column), in the absence of (upper panels) or in the presence of (lower panels) hrAnx-A1 (600 nM) for 12 hrs and then analyzed for CD25 and CD69 expression by FACS.
In FIG. 3D, murine naïve lymph node T cells were stimulated with the indicated concentration of anti-CD3/CD28 in the presence of 150 (X), 300 ( ? ) and 600 (◯) nM of hrAnx-A1 for 12 hours and then analysed for CD25 (left graph) and CD69 (right graph) expression by FACS.

[4] = tested on: Activator Protein-1 (AP-1); test: Electrophoretic Mobility Shift Assay for AP-1 activation in T cells; type: cell-based; settings: T cells stimulated with anti-CD3/CD28 1.25 μg/ml in presence of hrAnx-A1; FIG. 5A
Method: (§1) Nuclear extracts were harvested from 3×10^6 to 5×10^6 cells according to previously described protocols. Nuclear extracts (3 μg to 5 μg) were incubated with 1 μg (for NFAT) or 2 μg (for NF-κB and AP-1) of poly (dI:dC) in 20 μL binding buffer with ^32P end-labeled, double-stranded oligonucleotide probes (5×10^5 cpm), and fractionated on a 6% polyacrylamide gel (29:1 cross-linking ratio) in 0.5% TBE for 2.5 hours at 150 V. The NF-κB and AP-1 binding buffer (10×) contained 100 mM Tris-HCl, (pH 7.5), 500 mM NaCl, 10 mM EDTA, 50% glycerol, 10 mg/mL albumin, 30 mM GTP, 10 mM DTT. The NFAT binding buffer (10×) contained 100 mM Hepes (pH 7.9), 500 mM KCl, 1 mM EDTA, 1 mM EGTA, 50% glycerol, 5 mg/mL albumin, 1% Nonidet P-40, 10 mM DTT. The NF-κB and AP-1 double-stranded oligonucleotide probes were from Promega and the NFAT was from Santa Cruz Biotechnology (Santa Cruz, Calif.).
(§2) Investigations were carried out into how exogenous and endogenous Anx-A1 modulates T cell activation. The three major transcriptional activators of T cells, namely Activator Protein-1 (AP-1), Nuclear Factor-κB (NF-κB) and Nuclear Factor of Activated T cells (NFAT) were analysed in cells stimulated in presence of hrAnx-A1. […]

[5] = tested on: Nuclear Factor-κB (NF-κB); test: Electrophoretic Mobility Shift Assay for NF-κB activation in T cells; type: cell-based; settings: T cells stimulated with anti-CD3/CD28 1.25 μg/ml in presence of hrAnx-A1; FIG. 5A
Method: as §1, §2

[6] = tested on: Nuclear Factor of Activated T cells (NFAT); test: Electrophoretic Mobility Shift Assay for NFAT activation in T cells; type: cell-based; settings: T cells stimulated with anti-CD3/CD28 1.25 μg/ml in presence of hrAnx-A1; FIG. 5A
Method: as §1, §2

[7] = tested on: naïve lymph node T cells; test: Th1/Th2 differentiation in vitro, cytokine production on anti-CD3 restimulation; type: cell-based, mice; settings: Th1 or Th2 conditions, hrAnx-A1 600 nM, anti-CD3 5.0 μg/ml re-stimulation 8 h; FIG. 7A
Method: Primary murine T cells were prepared from lymph nodes by negative selection. Briefly, axillary, inguinal, and mesenteric lymph nodes were teased apart to make a single cell suspension, then washed and layered over Ficoll. The buffy coat was washed 2 times and then incubated with the antibody mix and the magnetic beads following the manufacturer's instructions (mouse T-cell negative isolation kit; Dynal, Bromborough, United Kingdom). In some experiments, cells were further purified to obtain naive CD62L^+ CD4^+ T cells by using the Miltenyi Biotec CD62L^+ CD4^+ T-cell isolation kit. Th0 conditions were created by T cells for 4 days in 6-well plates precoated with anti-CD3 (5 μg/mL) and anti-CD28 (5 μg/mL) in complete RPMI medium (10% fetal calf serum [FCS], 2 mM L-glutamine, and 100 units mL^−1 gentamycin) containing murine IL-2 (20 U/mL). Th1 conditions were created with murine IL-12 (3.4 ng/mL; eBioscience), IL-2 (20 U/mL; eBioscience), and anti-IL4 (clone 11B11; 2 μg/mL). Th2 conditions were created with IL-4 (3000 U/mL; Peprotech, Rocky Hill, N.J.), IL-2 (20 U/mL), and anti-IFN-γ (clone XMG1.2; 2 μg/mL). Jurkat cells were obtained from ATCC (Manassas, Va.) and were cultured in complete RPMI medium.
For Th1/Th2 cytokine production analysis, Th0/Th1/Th2 cells (10^6/mL) obtained after 4-day differentiation in skewing conditions and 1 day of resting in complete RPMI medium, were stimulated with plate-bound anti-CD3 (5 μg/mL) for 8 h in 24-well plates. Culture supernatants were collected and analyzed for IFN-γ, IL-2, IL-4 and IL-10 content by using Th1/Th2 panel ELISA kit (eBioscience). The IL-13 ELISA kit was also purchased from eBioscience.
Naïve lymph node T cells were differentiated in vitro in Th1 (black bars) or Th2 (white bars) conditions in presence or absence of hrAnx-A1 (600 nM) and then restimulated with plate-bound anti-CD3 (5.0 μg/ml) for 8 h to measure Th1 or Th2 cytokine production. Values are mean±S.E. of n=4-5 mice. **P<0.01

[8] = tested on: DBA mice; test: collagen-induced arthritis (CIA) model; type: in vivo; settings: 1 μg s.c. twice a day for 12 days after immunization with collagen, compared to PBS vehicle; FIGS. 8A, 8B
Method: Mice were injected with hrAnx-A1 daily for 12 days after immunization with collagen (time during which naïve cells differentiate in Th effector cells) and thereafter the progression of the disease upon antigen challenge was analyzed. […] Synchronization of disease onset was obtained by boosting with collagen on day 21, and clinical signs were evident from day 22 (day 1 of the onset of the diseases). Values are mean±S.E. of n=6-8 mice. Groups were compared using the Maim-Whitney test. *P<0.01

With “CH3CO-AMVSEFLKQA WFIENEEQEYVQTVK (Ac-AMVSEFLKQAWFIENEEQEYVQTVK; listed as Homo sapiens) [Ac.2-26, reference compound]” the T cell proliferation ([1]; Ac.2-26, data not shown) was “increased” and the IL-2 production ([2]; Ac.2-26 100 μM, anti-CD3/CD28 0.6, 1.25 or 2.5 μg/ml, 24 hrs, FIG. 9) was “increased”.

B1: hrAnx-A1: Endotoxin-free human recombinant Anx-A1 (Annexin-1, 37-kDa protein) (protein, UniProt P04083 1-346, looked up)
chain: MAMVSEFLKQAWFIENEEQEYVQTVKSSKGGPGSAVSPYPTFNPSSDVAALHKAIMVKGVDEATIIDILTKRNNAQRQQIKAAYLQETGKPLDETLKKALTGHLEEVVLALLKTPAQFDADELRAAMKGLGTDEDTLIEILASRTNKEIRDINRVYREELKRDLAKDITSDTSGDFRNALLSLAKGDRSEDFGVNEDLADSDARALYEAGERRKGTDVNVFNTILTTRSYPQLRRVFQKYTKYSKHDMNKVLDLELKGDIEKCLTAIVKCATSKPAFFAEKLHQAMKGVGTRHKALIRIMVSRSEIDMNDIKAFYQKMYGISLCQAILDETKGDYEKILVALCGGN
modifications: full-length
For B1, the cell proliferation ([1]; pre-treatment with hrAnx-A1, anti-CD3/CD28 5.0, 2.5 and 1.25 μg/ml, 24 hrs, FIG. 3A) was “augmented”, the IL-2 production ([2]; anti-CD3/CD28 1.25 μg/ml, different concentrations of hrAnx-A1, 24 hrs, FIG. 3B) was “augmented” and the “cell surface expression of CD25” value [3] was “augmented”. The “cell surface expression of CD69” value [3] was “augmented”, the “activation of AP-1” value [4] was “increased activation” and the “activation of NF-κB” value [5] was “increased activation”. The “activation of NFAT” value [6] was “increased activation”, the IFNγ production [7] was “increased” and the IL2 production [7] was “increased”. For the same molecule, the IL4 release [7] was “decrease”, the “IL 10 release” value [7] was “decrease” and the “signs and symptoms of arthritis (paw volume, clinical score)” value [8] was “exacerbated”.
